Assay results as given in paper PMC10866937, “Aptamers targeting SARS-CoV-2 nucleocapsid protein exhibit potential anti pan-coronavirus activity”.
Where two headings read alike, the source gives them in different places.

Key:
[1] = biological target: SARS-CoV-2 nucleocapsid protein (NP) (SARS-CoV-2 (WT), UniProt P0DTC9 1-419); assay: CE; details: protein: commercial
[2] = biological target: HCoV-OC43 nucleocapsid protein (HCoV-OC43, UniProt P33469 1-448); assay: CE; Kd range for six aptamers 6.57-31.76 nM; details: protein: recombinant
[3] = biological target: SARS-CoV nucleocapsid protein (SARS NP) (SARS-CoV, UniProt P59595 1-422); details: protein: commercial
[4] = biological target: MERS-CoV nucleocapsid protein (MERS NP) (MERS-CoV, UniProt K9N4V7 1-411); details: protein: commercial
[5] = label: 5'-FAM in CE (position not restated for aptamers)

Measured: binding result

GCAGGCAAGGCTCTACTGACCCGTTGCTTGATCGAC (ssDNA) [Seq-7]
binds: [1]; [5] | [2]; [5] | [3]; [5] | [4]; [5]

ACTCCCACCTTTATTGAGGGCGGTGACGGGTTCCCTC (ssDNA) [Seq-59]
binds: [1]; label: FAM in CE | [2]; label: FAM in CE | [3]; label: FAM in CE | [4]; label: FAM in CE

CACCTCTCACCCCACGGTTCTGGTCCTTCCCCGACG (ssDNA) [Seq-1280]
binds: [1]; label: FAM in CE | [2]; label: FAM in CE | [3]; label: FAM in CE | [4]; label: FAM in CE

TCCACGGTCGGTCCCCTTACCACTGGTCCCTTTGTC (ssDNA) [Seq-4650]
binds: [1]; label: FAM in CE | [2]; label: FAM in CE | [3]; label: FAM in CE | [4]; label: FAM in CE

AGGGGGGACACCTAGATTGTTGGCCGTGCGGATACG (ssDNA) [Seq-333]
binds: [1]; label: FAM in CE | [2]; label: FAM in CE | [3]; label: FAM in CE | [4]; label: FAM in CE

AGGGGGGACATCTGGAGTGTTGGCCGTGCGGATACG (ssDNA) [Seq-1022]
binds: [1]; label: FAM in CE | [2]; label: FAM in CE | [3]; label: FAM in CE | [4]; label: FAM in CE
